From paper PMC3137634 (2011)

What was measured:
Human TNFR1/Fc [1] = biological target: T1, Human TNFR1/Fc (human, UniProt P19438 30-211); experiment: SPR
T1 chain: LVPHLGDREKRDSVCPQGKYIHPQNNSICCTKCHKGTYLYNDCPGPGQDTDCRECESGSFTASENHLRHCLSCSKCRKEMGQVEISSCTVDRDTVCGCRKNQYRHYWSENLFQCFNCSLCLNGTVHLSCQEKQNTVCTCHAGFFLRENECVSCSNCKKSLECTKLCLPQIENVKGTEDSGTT

Human TNFR1/Fc [2] = biological target: T1, Human TNFR1/Fc; experiment: SPR

B1: recombinant HP986 (natural protein)
chain: METFFSLHVPNRRIKQNGIIDEKSLEKIQERKNLSSLLYEHRARIIPLYKRINENHAKNKTINICENNLKLFYKDHQVCVNIDKKEIKLRYSEDEDDFRKYIIGGWFEEYIYCELLELLDKQVICDLRLNMILGVGNTNATQGDKHPIYTELDIAFSDGKNLYVAECKSGELKNKGVLAALSADAQIFGGANAKCILISIDGNLGQVLQEKVKILNIEFIFKYFKKNIENYINNSRR
- Kd (Human TNFR1/Fc [1]): 72.1 nM
- Ka (Human TNFR1/Fc [2]): 1.39e+07 M⁻¹
